Patent publication US20230192897A1 (NUMAB THERAPEUTICS, published 2023)
Like-named read-outs stand apart in the source and are kept apart here.

Assays:
[1] = molecular target: T1, human PDL1 on cells (human, UniProt Q9NZQ7 19-290); assay: cell-based or functional assay
[2] = molecular target: T2, CD137 on Jurkat NFkB reporter cells (human, UniProt Q07011 24-255); assay: cell-based or functional assay
[3] = molecular target: human PDL1 extracellular domain (human, UniProt Q9NZQ7 19-238); assay: SPR, IgG format captured
Procedure: (§1) Affinity to PDL1 of the different species was determined by SPR measurements using a Biacore T200 device (GE Healthcare). An antibody specific for the Fc region of human IgGs was immobilized on a sensor chip (CM5 sensor chip, GE Healthcare) by amine-coupling. For all formats, with the exception of the Fc containing Morrison formats, PDL1-Fc chimeric protein from different species were captured by the immobilized antibody.
(§2) The Fc containing formats were directly captured by the antibody specific for the Fc region of human IgGs. Two-fold serial dilutions of PDL1 extracellular domain or CD137 extracellular domain ranging from 90 to 0.35 nM were tested for binding to the IgG captured on the biosensor chip. After each injection cycle, surfaces were regenerated with one injection of a 3 M MgCl2 solution.

[4] = molecular target: T3, human CD137 extracellular domain (human, UniProt Q07011 24-186); assay: SPR, IgG format captured
T3 construct: also called CD137 (PeproTech, cat. 310-15)
Procedure: as §1, §2

[5] = molecular target: T4, biotinylated human PDL1 (human, UniProt Q9NZQ7 19-238, limits assumed, biotinylated); assay: competition ELISA B7.1/PDL1
T4 construct: also called biotinylated PDL1
Procedure, shortened: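 Test mixtures containing biotinylated human PDL1 were pre-incubated 1 h at room temperature, then incubated 1.5 h on the plate under agitation. Bound PDL1 detected with 10 ng/ml streptavidin-polyHRP40 and TMB, stopped at 6 min with HCl, read at 450 nm minus 690 nm. IC₅₀ from 4PL fit.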

[6] = molecular target: T4, biotinylated human PDL1; assay: competition ELISA PD-1/PDL1
[7] = molecular target: T1, human PDL1 on cells; assay: cell-based or functional assay; remark: listed apart in the source
[8] = molecular target: T2, CD137 on Jurkat NFkB reporter cells; assay: cell-based or functional assay; remark: listed apart in the source
[9] = molecular target: T2, CD137 on Jurkat NFkB reporter cells; assay: cell-based or functional assay; remark: listed apart in the source
[10] = molecular target: T2, CD137 on Jurkat NFkB reporter cells; assay: cell-based or functional assay; remark: listed apart in the source
[11] = molecular target: T2, CD137 on Jurkat NFkB reporter cells; assay: cell-based or functional assay; remark: listed apart in the source

B1: PRO1062 (bispecific antibody, human IgG1, kappa, L234A L235A)
light: DIQMTQSPSSLSASVGDRVTITCQASQSINDYLAWYQQKPGKAPKLLIYKASTLASGVPSRFSGSGSGTDFTLTISSLQPEDFATYYCQQGYIITDIDNVFGTGTKVTVLGTVAAPSVFIFPPSDEQLKSGTASVVCLLNNFYPREAKVQWKVDNALQSGNSQESVTEQDSKDSTYSLSSTLTLSKADYEKHKVYACEVTHQGLSSPVTKSFNRGEC
heavy: QVQLQESGPGLVKPSETLSLTCKVSGFSFSSGYDMCWIRQPPGKGLEWIGCVVAGSVDITYYASWAKGRVTISVDSSKNQFSLKLSSVTAADTAVYYCARKDAYSDAFNLWGQGTLVTVSSASTKGPSVFPLAPSSKSTSGGTAALGCLVKDYFPEPVTVSWNSGALTSGVHTFPAVLQSSGLYSLSSVVTVPSSSLGTQTYICNVNHKPSNTKVDKRVEPKSCDKTHTCPPCPAPEAAGGPSVFLFPPKPKDTLMISRTPEVTCVVVDVSHEDPEVKFNWYVDGVEVHNAKTKPREEQYNSTYRVVSVLTVLHQDWLNGKEYKCKVSNKALGAPIEKTISKAKGQPREPQVYTLPPSREEMTKNQVSLTCLVKGFYPSDIAVEWESNGQPENNYKTTPPVLDSDGSFFLYSKLTVDKSRWQQGNVFSCSVMHEALHNHYTQKSLSLSPGKGGGGSGGGGSIQMTQSPSSLSASVGDRVTITCQASQSINNVLAWYQQKPGKAPKLLIYRASTLASGVPSRFSGSGSGTDFTLTISSLQPEDFATYYCQSSYGNYGDFGTGTKVTVLGGGGGSGGGGSGGGGSGGGGSQVQLQESGPGLVKPSETLSLTCKVSGFSFSNSYWICWIRQPPGKGLEWIGCTFVGSSDSTYYANWAKGRVTISVDSSKNQFSLKLSSVTAADTAVYYCARHPSDAVYGYANNLWGQGTLVTVSS
notes: also called 33-03-G02 sc01 IgG1 HC with 38-27-C05 sc01 scFv; Morrison-H
IC50 (ng/ml), NF-AT potency assay [1]: 96.5 ng/mL
rel. IC50 (avelumab/test) [1]: 0.68 fold
EC50, NFkB reporter, CHO-PDL1, 6 h [2]: 0.0522 µg/mL
EC50, NFkB reporter, CHO-PDL1, 24 h [2]: 0.0869 µg/mL
IC50 (ng/ml), NFkB reporter, CHO-PD-L1, 24 h [2]: 86.9 ng/mL
max. activation (%), NFkB reporter, CHO-PD-L1, 24 h [2]: 134%
rel. IC50 (urelumab/test), NFkB reporter, CHO-PD-L1, 24 h [2]: 0.54 fold
koff [3]: 5e-05 s⁻¹
Kd [4]: 1.3 nM
koff [4]: 0.00037 s⁻¹
kon [4]: 280000 M⁻¹ s⁻¹
IC50 [5]: 0.0195 µg/mL
rel. IC50 (IC50 avelumab/IC50 test) [5]: 0.51 fold
IC50 [6]: 0.0113 µg/mL
rel. IC50 (IC50 avelumab/IC50 test) [6]: 0.32 fold

B2: PRO1060 (bispecific antibody, human IgG1, kappa, L234A L235A)
light: DIQMTQSPSSLSASVGDRVTITCQASQSINDYLAWYQQKPGKAPKLLIYKASTLASGVPSRFSGSGSGTDFTLTISSLQPEDFATYYCQQGYIITDIDNVFGTGTKVTVLGTVAAPSVFIFPPSDEQLKSGTASVVCLLNNFYPREAKVQWKVDNALQSGNSQESVTEQDSKDSTYSLSSTLTLSKADYEKHKVYACEVTHQGLSSPVTKSFNRGEC
heavy: QVQLQESGPGLVKPSETLSLTCKVSGFSFSSGYDMCWIRQPPGKGLEWIGCVVAGSVDITYYASWAKGRVTISVDSSKNQFSLKLSSVTAADTAVYYCARKDAYSDAFNLWGQGTLVTVSSASTKGPSVFPLAPSSKSTSGGTAALGCLVKDYFPEPVTVSWNSGALTSGVHTFPAVLQSSGLYSLSSVVTVPSSSLGTQTYICNVNHKPSNTKVDKRVEPKSCDKTHTCPPCPAPEAAGGPSVFLFPPKPKDTLMISRTPEVTCVVVDVSHEDPEVKFNWYVDGVEVHNAKTKPREEQYNSTYRVVSVLTVLHQDWLNGKEYKCKVSNKALGAPIEKTISKAKGQPREPQVYTLPPSREEMTKNQVSLTCLVKGFYPSDIAVEWESNGQPENNYKTTPPVLDSDGSFFLYSKLTVDKSRWQQGNVFSCSVMHEALHNHYTQKSLSLSPGKGGGGSGGGGSIQMTQSPSSLSASVGDRVTITCQASQSINNVLAWYQQKPGKAPKLLIYRASTLASGVPSRFSGSGSGTDFTLTISSLQPEDFATYYCQSSYGNYGDFGTGTKVTVLGGGGGSGGGGSGGGGSGGGGSQVQLQESGPGLVKPSETLSLTCKVSGFSFSNSYWICWIRQPPGKGLEWIGCTFVGSSDSTYYANWAKGRVTISVDSSKNQFSLKLSSVTAADTAVYYCARHPSDAVYGYANNLWGQGTLVTVSS
notes: silent hIgG1 anti-PDL1 with anti-CD137 scFv on the heavy chain; also called 33-03-G02 IgG1 HC with 38-02-A04 sc01 scFv; Morrison-H
IC50 (ng/ml), NF-AT potency assay [7]: 133 ng/mL
rel. IC50 (avelumab/test) [7]: 0.44 fold
EC50, NFkB reporter, CHO-PDL1, 6 h [8]: 0.0564 µg/mL
EC50, NFkB reporter, CHO-PDL1, 24 h [9]: 0.0808 µg/mL
EC50, NFkB reporter, HCC827 with IFNg, 24 h [10]: 0.0175 µg/mL
EC50, NFkB reporter, HCC827 without IFNg, 24 h [10]: 0.0136 µg/mL
IC50 (ng/ml), NFkB reporter, CHO-PD-L1, 24 h [11]: 80.8 ng/mL
IC50 (ng/ml), NFkB reporter, HCC827 + IFNg, 24 h [11]: 17.5 ng/mL
IC50 (ng/ml), NFkB reporter, HCC827 - IFNg, 24 h [11]: 13.6 ng/mL
rel. IC50 (urelumab/test), NFkB reporter, CHO-PD-L1, 24 h [11]: 0.58 fold
rel. IC50 (urelumab/test), NFkB reporter, HCC827 + IFNg, 24 h [11]: 3.01 fold
rel. IC50 (urelumab/test), NFkB reporter, HCC827 - IFNg, 24 h [11]: 3.5 fold
koff [3]: 4.6e-05 s⁻¹
kon [3]: 1.3e+06 M⁻¹ s⁻¹
Kd [4]: 1.3 nM
koff [4]: 0.00039 s⁻¹
IC50 [5]: 0.0174 µg/mL
rel. IC50 (IC50 avelumab/IC50 test) [5]: 0.49 fold
IC50 [6]: 0.00567 µg/mL
rel. IC50 (IC50 avelumab/IC50 test) [6]: 0.3 fold
